# According to US20210386788A1, “ER TUNABLE PROTEIN REGULATION” (Obsidian Therapeutics, Inc., priority 2018, published 2021):
# B1: OT-001356: IL12-CD19 CAR tandem construct listed without ER DD mutation in Table 13 (control) (protein)
# chain: IWELKKDVYVVELDWYPDAPGEMVVLTCDTPEEDGITWTLDQSSEVLGSGKTLTIQVKEFGDAGQYTCHKGGEVLSHSLLLLHKKEDGIWSTDILKDQKEPKNKTFLRCEAKNYSGRFTCWWLTTISTDLTFSVKSSRGSSDPQGVTCGAATLSAERVRGDNKEYEYSVECQEDSACPAAEESLPIEVMVDAVHKLKYENYTSSFFIRDIIKPDPPKNLQLKPLKNSRQVEVSWEYPDTWSTPHSYFSLTFCVQVQGKSKREKKDRVFTDKTSATVICRKNASISVRAQDRYYSSSWSEWASVPCSGGGGSGGGGSGGGGSRNLPVATPDPGMFPCLHHSQNLLRAVSNMLQKARQTLEFYPCTSEEIDHEDITKDKTSTVEACLPLELTKNESCLNSRETSFITNGSCLASRKTSFMMALCLSSIYEDLKMYQVEFKTMNAKLLMDPKRQIFLDQNMLAVIDELMQALNFNSETVPQKSSLEEPDFYKTKIKLCILLHAFRIRAVTIDRVMSYLNASGS
# B2: OT-001791: CD8α leader; Linker (RS); ER (T371A, L384M, M421G, N519S, G521R, Y537S); Furin cleavage site; CD19 CAR; SEQ ID NO. 404 (protein)
# chain: MALPVTALLLPLALLLHAARPRSSLALSLTADQMVSALLDAEPPILYSEYDPTRPFSEASMMGLLTNLADRELVHMINWAKRVPGFVDLALHDQVHLLECAWMEILMIGLVWRSMEHPGKLLFAPNLLLDRNQGKCVEGGVEIFDMLLATSSRFRMMNLQGEEFVCLKSIILLNSGVYTFLSSTLKSLEEKDHIHRVLDKITDTLIHLMAKAGLTLQQQHQRLAQLLLILSHIRHMSSKRMEHLYSMKCKNVVPLSDLLLEMLDAHRLGTGAEDPRPSRKRRSLGDVGEIVMTQSPATLSLSPGERATLSCRASQDISKYLNWYQQKPGQAPRLLIYHTSRLHSGIPARFSGSGSGTDYTLTISSLQPEDFAVYFCQQGNTLPYTFGQGTKLEIKGGGGSGGGGSGGGGSQVQLQESGPGLVKPSETLSLTCTVSGVSLPDYGVSWIRQPPGKGLEWIGVIWGSETTYYSSSLKSRVTISKDNSKNQVSLKLSSVTAADTAVYYCAKHYYYGGSYAMDYWGQGTLVTVSSTTTPAPRPPTPAPTIASQPLSLRPEACRPAAGGAVHTRGLDFACDIYIWAPLAGTCGVLLLSLVITLYCKRGRKKLLYIFKQPFMRPVQTTQEEDGCSCRFPEEEEGGCELRVKFSRSADAPAYKQGQNQLYNELNLGRREEYDVLDKRRGRDPEMGGKPRRKNPQEGLYNELQKDKMAEAYSEIGMKGERRRGKGHDGLYQGLSTATKDTYDALHMQALPPR
# B3: OT-001737: ER-DD fused to flexi IL12, with or without intervening furin site (protein)
# chain: MCHQQLVISWFSLVFLASPLVAGSSLALSLTADQMVSALLDAEPPILYSEYDPTRPFSEASMMGLLTNLADRELVHMINWAKRVPGFVDLALHDQVHLLECAWMEILMIGLVWRSMEHPGKLLFAPNLLLDRNQGKCVEGGVEIFDMLLATSSRFRMMNLQGEEFVCLKSIILLNSGVYTFLSSTLKSLEEKDHIHRVLDKITDTLIHLMAKAGLTLQQQHQRLAQLLLILSHIRHMSSKRMEHLYSMKCKNVVPLSDLLLEMLDAHRLRTKRIWELKKDVYVVELDWYPDAPGEMVVLTCDTPEEDGITWTLDQSSEVLGSGKTLTIQVKEFGDAGQYTCHKGGEVLSHSLLLLHKKEDGIWSTDILKDQKEPKNKTFLRCEAKNYSGRFTCWWLTTISTDLTFSVKSSRGSSDPQGVTCGAATLSAERVRGDNKEYEYSVECQEDSACPAAEESLPIEVMVDAVHKLKYENYTSSFFIRDIIKPDPPKNLQLKPLKNSRQVEVSWEYPDTWSTPHSYFSLTFCVQVQGKSKREKKDRVFTDKTSATVICRKNASISVRAQDRYYSSSWSEWASVPCSGGGGSGGGGSGGGGSRNLPVATPDPGMFPCLHHSQNLLRAVSNMLQKARQTLEFYPCTSEEIDHEDITKDKTSTVEACLPLELTKNESCLNSRETSFITNGSCLASRKTSFMMALCLSSIYEDLKMYQVEFKTMNAKLLMDPKRQIFLDQNMLAVIDELMQALNFNSETVPQKSSLEEPDFYKTKIKLCILLHAFRIRAVTIDRVMSYLNAS
# B4: OT-001569: ER-DD (T371A, L384M, M421G, N519S, G521R, Y537S) fused to flexi IL12 (protein)
# chain: MCHQQLVISWFSLVFLASPLVAGSSLALSLTADQMVSALLDAEPPILYSEYDPTRPFSEASMMGLLTNLADRELVHMINWAKRVPGFVDLALHDQVHLLECAWMEILMIGLVWRSMEHPGKLLFAPNLLLDRNQGKCVEGGVEIFDMLLATSSRFRMMNLQGEEFVCLKSIILLNSGVYTFLSSTLKSLEEKDHIHRVLDKITDTLIHLMAKAGLTLQQQHQRLAQLLLILSHIRHMSSKRMEHLYSMKCKNVVPLSDLLLEMLDAHRLGSIWELKKDVYVVELDWYPDAPGEMVVLTCDTPEEDGITWTLDQSSEVLGSGKTLTIQVKEFGDAGQYTCHKGGEVLSHSLLLLHKKEDGIWSTDILKDQKEPKNKTFLRCEAKNYSGRFTCWWLTTISTDLTFSVKSSRGSSDPQGVTCGAATLSAERVRGDNKEYEYSVECQEDSACPAAEESLPIEVMVDAVHKLKYENYTSSFFIRDIIKPDPPKNLQLKPLKNSRQVEVSWEYPDTWSTPHSYFSLTFCVQVQGKSKREKKDRVFTDKTSATVICRKNASISVRAQDRYYSSSWSEWASVPCSGGGGSGGGGSGGGGSRNLPVATPDPGMFPCLHHSQNLLRAVSNMLQKARQTLEFYPCTSEEIDHEDITKDKTSTVEACLPLELTKNESCLNSRETSFITNGSCLASRKTSFMMALCLSSIYEDLKMYQVEFKTMNAKLLMDPKRQIFLDQNMLAVIDELMQALNFNSETVPQKSSLEEPDFYKTKIKLCILLHAFRIRAVTIDRVMSYLNAS
# Key:
# Type in all cases: cell-based, human
# HEK293T cells [1] = test: IL12 p40 in media of HEK293T cells transfected with IL12-CD19 CAR tandem constructs (MSD assay); details: for IL12p40 DMSO Average: vehicle 24 hrs (absence of ligand)
# Experimental: (§1) HEK293T cells were transiently transfected with 1 μg DNA from each construct listed in the first column of Table 13 and incubated in DMEM with 10% FBS at 37° C., 5% CO2 for 24 hrs. Following the incubation, 1 μM of Bazedoxifene (BZD) or vehicle was added and cells were further incubated for 24 hrs. Following the incubation, CD19 CAR expression on the cell surface was quantified using FACS with CD19-Fc reagent, as a measure of transfection efficiency. IL12 levels in the media were quantified using MSD assay for p40. The IL12 and CD19 levels are shown in Table 13, where SD indicates standard deviation and SR indicates stabilization ratio. The stabilization ratio was calculated using the average IL12 values.
# HEK293T cells [2] = test: CD19 CAR cell surface expression in transfected HEK293T cells (FACS with CD19-Fc); details: measure of transfection efficiency
# Experimental: as §1
# primary T cells = test: CD19 CAR expression on lentivirus transduced primary T cells (flow cytometry with CD19-Fc); details: both day 7 and day 9
# Experimental: Primary T cells were activated with CD3/CD28 Dynabeads at 3:1 Bead: Cell ratio overnight, then transduced with OT-001792 lentivirus. On day 7 of the T cell expansion, CAR expression was measured by flow cytometry with CD19-Fc on cells treated overnight in the presence (34% positive) or absence (0.6% positive) of 1 μM Bazedoxifene. After the T cells had expanded for 10 days, they were mixed with CD19-expressing Nalm6 target cells at ratios of 10:1 and 2.5:1 total T cells:Nalm6 cells and cultured for 3 days.
# Primary T cells were activated with CD3/CD28 Dynabeads at 3:1 Bead:Cell ratio overnight, then transduced with lentiviruses derived from the indicated constructs. On day 7 or day 9 (as indicated) of the T cell expansion, CAR expression was measured by flow cytometry with CD19-Fc on cells incubated for 24 hours with 1 μM Bazedoxifene or 1 μM Raloxifene or DMSO. […] At day 9 the basal percentage of CAR positive cells for the same constructs was even lower at approximately 20% i.e. in the absence of ligand and about 32-45% in the presence of either ligand. […] This was true at both day 7 and day 9.
# Human donor T cells were thawed and activated overnight in the presence of CD3/CD28 Dynabeads at 3:1 bead:cell ratio, then transduced with lentivirus related to OT-002158, or OT-001786. Cells were expanded over the course of 10 days, with fresh media added to maintain cells at around 0.5×10^6 cells/mL. On day 9, an aliquot of cells was removed, and treated with 1 μM Bazedoxifene overnight or DMSO vehicle control, then stained with 10 μg/mL CD19-Fc. Histograms showing CAR expression from a Live Singlet cell gate were plotted.
# Human donor T cells were thawed and activated overnight in the presence of CD3/CD28 Dynabeads at 3:1 bead:cell ratio, then transduced with lentivirus from the constructs. Cells were expanded over the course of 10 days, and fresh media was added to maintain cells around 0.5×10^6 cells/ml. On day 9, an aliquot of cells were removed, treated with 1 μM Bazedoxifene overnight, then stained with 10 μg/mL CD19-Fc. Histograms showing CAR expression from a Live Singlet cell gate were plotted. The data are shown in Table 19 and Table 20 where data are presented as % CAR positive cells, where SR indicates stabilization ration.
# T cells were transduced with OT-00179, OT-002158, OT-001407 or empty vector and expanded as described herein, frozen on day 10. To confirm the expression and function of this large scale expansion for in vivo use, cells were thawed and incubated overnight in the presence of CD3/28 beads (1:1 bead:cell ratio) and with or without 1 μM Bazedoxifene. FACS staining with 1 μg/mL CD19-Fc was performed to measure the surface expression of CD19-CAR. The data are provided in Table 21 as the percentage CAR positive cells.
# HEK 293T cells = test: IL12 expression of ER-DD flexi IL12 constructs in transiently transfected HEK 293T cells (MSD assay); details: for IL12 expression, 1 μM BZD / IL12 expression, Vehicle: HEK 293T transiently transfected, MSD assay; for IL12 expression, 1 μM BZD: 1 μM Bazedoxifene 24 hours; for IL12 expression, Vehicle: vehicle control 24 hours; for Stabilization Ratio: IL12 with 1 μM BZD versus vehicle
# Experimental: HEK 293T cells were transiently transfected with constructs containing ER-DDs fused to flexi IL12 with or without intervening furin site to generate constructs: OT-001569, OT-001737. Cells were then treated with 1 μM Bazedoxifene (BZD) or vehicle control for 24 hours and IL12 levels were measured by MSD assay Table 11.
Molecule,"IL12p40 DMSO Average (HEK293T cells [1]; HEK293T, 1 μg DNA) [pg/mL]",Surface CAR (HEK293T cells [2]) [%],percentage of CAR positive cells (primary T cells; absence of ligand),percentage of CAR positive cells (primary T cells; presence of ligand),"IL12 expression, 1 μM BZD (HEK 293T cells)","IL12 expression, Vehicle (HEK 293T cells)",Stabilization Ratio (HEK 293T cells),"IL12p40 1 μM BZD Average (HEK293T cells [1]; HEK293T, 1 μg DNA, 1 μM Bazedoxifene 24 hrs) [pg/mL]","SR (stabilization ratio) (HEK293T cells [1]; calculated using the average IL12 values, 1 μM BZD versus DMSO)"
B1,203531.67,40,–,–,–,–,–,–,–
B2,–,–,undetectable,about 5%,–,–,–,–,–
B3,–,–,–,–,79706.8,10186.4,7.8,–,–
B4,6443.64,0.1,–,–,109878,11529.1,9.5,75542.57,11.72
